Measured values reported in paper PMC12350670, “The characterization of variable new antigen receptors targeting FAP isolated from a novel immunized library” (Communications Biology, 2025).

T1: recombinant human fibroblast activation protein (human, UniProt Q12884 39-757, biotin (EZ-link NHS-PEG4-biotin))
T1 construct: also called hFAP; human FAP; source: bought: Acro Biosystems
T1 sequence: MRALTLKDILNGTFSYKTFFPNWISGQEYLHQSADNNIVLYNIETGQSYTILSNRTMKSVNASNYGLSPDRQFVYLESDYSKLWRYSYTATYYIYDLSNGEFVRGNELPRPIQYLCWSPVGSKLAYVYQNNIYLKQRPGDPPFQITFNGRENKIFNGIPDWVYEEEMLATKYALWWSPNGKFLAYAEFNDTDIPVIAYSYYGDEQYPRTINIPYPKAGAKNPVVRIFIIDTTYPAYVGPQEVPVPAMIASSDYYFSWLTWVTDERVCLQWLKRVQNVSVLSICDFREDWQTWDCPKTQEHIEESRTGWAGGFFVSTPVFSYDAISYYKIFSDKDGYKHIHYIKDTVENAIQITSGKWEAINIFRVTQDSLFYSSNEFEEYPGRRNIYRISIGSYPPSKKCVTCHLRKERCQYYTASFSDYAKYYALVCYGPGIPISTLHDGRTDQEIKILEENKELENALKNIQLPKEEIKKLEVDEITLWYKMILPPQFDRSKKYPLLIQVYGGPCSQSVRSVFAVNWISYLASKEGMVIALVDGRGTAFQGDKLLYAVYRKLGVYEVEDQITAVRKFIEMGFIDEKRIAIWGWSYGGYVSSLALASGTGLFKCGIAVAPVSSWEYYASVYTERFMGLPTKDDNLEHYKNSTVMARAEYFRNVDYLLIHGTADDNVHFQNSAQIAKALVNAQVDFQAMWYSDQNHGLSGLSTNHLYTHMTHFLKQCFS

T2: FAP on CWR-R1^FAP cells (human, UniProt Q12884 1-760)
T2 construct: also called CWR-R1-EnzR^FAP
T2 sequence (looked up): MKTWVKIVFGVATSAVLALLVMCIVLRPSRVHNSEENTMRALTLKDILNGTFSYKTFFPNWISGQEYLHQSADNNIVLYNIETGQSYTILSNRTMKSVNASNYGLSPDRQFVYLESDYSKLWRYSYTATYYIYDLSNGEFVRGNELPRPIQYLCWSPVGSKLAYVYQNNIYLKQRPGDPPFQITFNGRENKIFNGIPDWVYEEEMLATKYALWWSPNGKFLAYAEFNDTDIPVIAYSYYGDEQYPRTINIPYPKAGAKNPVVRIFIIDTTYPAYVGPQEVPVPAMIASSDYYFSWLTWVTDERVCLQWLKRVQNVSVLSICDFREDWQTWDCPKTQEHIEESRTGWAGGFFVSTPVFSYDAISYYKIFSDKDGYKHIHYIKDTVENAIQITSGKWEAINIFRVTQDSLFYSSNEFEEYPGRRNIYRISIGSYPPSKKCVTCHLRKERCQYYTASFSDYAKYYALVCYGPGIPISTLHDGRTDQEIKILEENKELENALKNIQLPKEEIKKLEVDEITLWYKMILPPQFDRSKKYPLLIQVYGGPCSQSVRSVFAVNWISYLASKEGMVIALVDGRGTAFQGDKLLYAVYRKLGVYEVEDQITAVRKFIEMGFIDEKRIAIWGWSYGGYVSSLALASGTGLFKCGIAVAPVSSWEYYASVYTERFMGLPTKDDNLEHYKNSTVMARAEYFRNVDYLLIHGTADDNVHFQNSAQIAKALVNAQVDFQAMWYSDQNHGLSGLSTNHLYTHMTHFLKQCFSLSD

T3: FAP on hPrCSC-44 cells (human (endogenous in hPrCSC-44), UniProt Q12884 1-760)
T3 construct: also called endogenous FAP; source: endogenous, hPrCSC-44 immortalized cancer-associated fibroblast cells, on cells
T3 sequence (looked up): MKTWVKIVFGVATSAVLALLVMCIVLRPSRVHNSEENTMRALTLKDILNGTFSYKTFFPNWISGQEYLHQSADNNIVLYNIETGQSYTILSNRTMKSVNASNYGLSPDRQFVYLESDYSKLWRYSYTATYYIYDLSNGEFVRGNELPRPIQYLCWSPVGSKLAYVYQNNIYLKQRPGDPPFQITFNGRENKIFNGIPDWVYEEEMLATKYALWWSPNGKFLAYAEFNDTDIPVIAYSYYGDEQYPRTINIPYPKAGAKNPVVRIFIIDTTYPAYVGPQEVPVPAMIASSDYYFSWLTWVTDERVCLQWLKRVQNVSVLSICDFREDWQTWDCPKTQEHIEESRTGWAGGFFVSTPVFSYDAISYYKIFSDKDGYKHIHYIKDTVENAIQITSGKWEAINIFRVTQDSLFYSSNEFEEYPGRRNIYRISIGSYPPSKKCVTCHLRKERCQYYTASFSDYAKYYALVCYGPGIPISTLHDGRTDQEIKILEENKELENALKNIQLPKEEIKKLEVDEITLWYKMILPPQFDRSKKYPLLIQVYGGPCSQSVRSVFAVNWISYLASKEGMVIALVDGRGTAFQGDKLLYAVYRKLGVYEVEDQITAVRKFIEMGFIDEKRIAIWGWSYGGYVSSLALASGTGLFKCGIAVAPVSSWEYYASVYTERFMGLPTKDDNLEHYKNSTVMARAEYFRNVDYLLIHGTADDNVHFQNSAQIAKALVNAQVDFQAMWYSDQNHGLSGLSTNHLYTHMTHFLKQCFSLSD


Experiments:
[1] = target: T1, recombinant human fibroblast activation …; test: BLI; biotinylated bait protein (30 nM) loaded on Octet streptavidin (SAX) biosensors; serially diluted VNAR-Fc (300-0.412 nM) as analyte; PBS with 1% BSA; kinetic analysis with a bivalent analyte model; settings: both partners purified
FAP on CWR-R1^FAP cells = target: T2, FAP on CWR-R1^FAP cells; test: flow cytometry on cells; cells incubated with VNAR-Fc (several concentrations, or fixed 100 nM) 1 h on ice, detected with PE-labeled anti-human IgG Fc; KD from logistic fitting of mean fluorescence intensity; settings: one partner purified
FAP on hPrCSC-44 cells = target: T3, FAP on hPrCSC-44 cells; test: as above; settings: one partner purified

| Kd [1] | Kd (FAP on CWR-R1^FAP cells) | Kd (FAP on hPrCSC-44 cells) | Binder |
| --- | --- | --- | --- |
| 0.0141 nM | 12 nM | 15.6 nM | H4-Fc (Fc fusion, nurse shark (Ginglymostoma cirratum), Bivalent human IgG1 Fc fusion (vector TGEX-SCblue); also called anti-FAP VNAR H4; VNAR-Fc; source: ExpiCHO-S, transfected, purified (protein A, SEC)) ARVDQTPQTITKETGESLTINCVLRDSNCALSSTYWYRKKSGSTNEESISKGGRYVETVNSGSKSFSLRINDLTVEDSGTYRCNVYVAGMSPCLSWGDVYGDGTAVTVN |
| 0.356 nM | 8.44 nM | 6.03 nM | NGS2405-Fc (Fc fusion, nurse shark (Ginglymostoma cirratum), Bivalent human IgG1 Fc fusion (vector TGEX-SCblue); also called VNAR-Fc; source: ExpiCHO-S, transfected, purified (protein A, SEC)) ARVDQTPQTITKETGESLTINCVLRDSNCALSFTYWYRKKSGSTNEESISKGGRYVETVNSGSKSFSLRINDLTVEDSGTYRCNVYVGGGCPHWIDVYGDGTAVTVN |
